Assay results from patent publication US20160193296A1, “METHODS FOR TREATMENT OF MICROCEPHALY ASSOCIATED AUTISM DISORDERS” (BROWN UNIVERSITY, priority 2012, published 2016).

Columns and labels:
[1] = system: NHE6 mutant hippocampal neurons; assay: Axonal and dendritic branching of cultured hippocampal neurons with exogenous BDNF; type: cell-based, mouse
Method: (§1) Hippocampi were dissected from P0-P1 mice, dissociated with papain (20 units/ml) in Earle's Balanced Salt Solution (EBSS) with bicarbonate at 37° C. for 30 min and triturated with a 1 ml pipette. Hippocampal neurons were placed on 8-well chamber slides coated with 1 mg/ml poly-D-lysine at a cell density of 3×10^5 cells/ml. For neuronal morphology, neurons at 1 DIV were transfected with EGFP constructs or together with testing constructs at a ratio of 1:1 using Lipofectamine 2000 (Invitrogen) according to manufacturer guidelines. For LysoTracker experiments, GFP transfected neurons at 5 DIV were incubated with 100 nM Lysotracker Red DND-99 at 37° C. for 30 min. After washing with PBS for 3 times, cells were imaged live or cells were fixed with 4% paraformaldehyde for 15 min and Z-series images were obtained under a Zeiss LSM710 confocal laser scanning microscope.
Images of cultured hippocampal neurons (2 DIV) were captured from randomly chosen fields on a Zeiss LSM710 confocal laser scanning microscope, blinded to genotypes, and traced using Metamorph Neurite Outgrowth software. The number of processes (i.e., neurites emanating directly from the cell body) per cell, the total number and total cumulative length of all neurite branches per cell and the length of the longest neurite per cell were determined. Z-series images of individual GFP-filled neurons at 5 DIV were obtained on a Carl Zeiss 710 confocal microscope and traced manually using Neurolucida software. Quantification of the branch number and total length of axons and dendrites per cell was done on images acquired with 20× objective. Quantitative analysis for LysoTracker red labeled endosomes was performed by using Neurolucida in images acquired with 63× objective. LysoTracker red puncta that completely overlapped with GFP-labeled dendrites or axons were scored as co-localized endosomes. Each experiment was performed on at least three different batches of cultured neurons.
Taken together our data support a model wherein due to loss of NHE6 there is an abnormal acidification of early endosomes resulting in impoverished branching as a result of decreases in BDNF/TrkB signaling. Given this model, we predicted that exogenous and high levels of BDNF may rescue the branching defects through enhancing TrkB signaling. To investigate the ability of exogenous BDNF to interact and improve the cellular phenotype seen, we added BDNF (50 ng/ml) to wild-type and mutant cultures at 2 DIV and examined cultures on day 5 for effects on axonal and dendritic branching associated with NHE6 mutation. […] We saw effects on both branching as well as an increase in the number of primary dendrites. […]

TrkB receptor = assay: Western blot of TrkB receptor and phospho-Trk levels after BDNF in hippocampal cultures at 4 DIV; type: cell-based, mouse; conditions: for TrkB receptor level normalized to time of BDNF administration: 50 ng/ml BDNF for 30 min
Method: as §1
Next, we examined directly the levels of TrkB receptor in response to signaling. TrkB is well-known to be endocytosed upon binding BDNF and a significant degree of signaling has been proposed to occur within signaling endosomes upon endocytosis. […] To test this hypothesis, we examined TrkB receptor levels and phospho-Trk levels in response to BDNF signaling in NHE6 mutant and wild type hippocampal cultures at 4 DIV.

[2] = NHE6 mutant neurons, BDNF 50 ng/ml added at 2 DIV, examined on day 5

B1: BDNF: secreted protein, member of the neurotrophin family of growth factors; binds to the TrkB receptors (protein)
chain: HSDPARRGELSVCDSISEWVTAADKKTAVDMSGGTVTVLEKVPVSKGQLKQYFYETKCNPMGYTKEGCRGIDKRHWNSQCRTTQSYVRALTMDSKKRIGWRFIRIDTSCVCTLTIKRGR
In the case of B1, the “rescue of branching defects (in words)” value ([1]; NHE6 mutant cells, BDNF 50 ng/ml, 2 DIV to day 5) is reported as “increased both axonal and dendritic branching in mutant cells to a level approaching wild-type levels”, the axonal branching [1, 2] is reported as 27.7+/−2.0 branch points per cell and the dendritic branching [1, 2] is reported as 34.4+/−2.4 branches per cell. The primary dendrites [1, 2] was 8.7+/−0.4 dendrites, the “TrkB receptor level normalized to time of BDNF administration” value (TrkB receptor; NHE6 mutant neurons) was 0.79+/−0.04 and the “TrkB receptor level in mutant neurons as % of the control” value (TrkB receptor; mutant/WT, 50 ng/ml BDNF, 30 min) was 76.5%. For the same molecule, the “TrkB receptor level in mutant neurons as % of wild type” value (TrkB receptor; mutant/WT, 50 ng/ml BDNF, 60 min) was 73.3%, the “TrkB receptor level in mutant neurons as % of wild type” value (TrkB receptor; mutant/WT, 50 ng/ml BDNF, 2 h) was 74.9% and the “induction of phospho-Trk in mutant compared to control” value (TrkB receptor; mutant/WT, after adding BDNF, throughout the whole treatment duration) was “approximately 48%”. The “TrkB receptor level normalized to time of BDNF administration” value (TrkB receptor; wild type neurons) was 1.03+/−0.06.
